The chains are these.
B1: POU domain, class 4, transcription factor 2, residues 256 to 327; numbered along this chain, Q12837 (parent)
chain: RDLEAFAERFKQRRIKLGVTQADVGSALANLKIPGVGSLSQSTICRFESLTLSHNNMIALKPILQAWLEEAE

167 variants from the Human Domainome abundance scans (Beltran et al. 2025) can be followed below.

± gives the uncertainty stated by the source.

In the data set the parent is B1. Kind of data set: abundance fitness (aPCA) (normalised: wild type 0, dead -1); higher = more abundant; growth selection in yeast, the domain comes from the species named. As to conditions: Homo sapiens.
Turning to L50T, the abundance fitness was -0.147 ± 0.094.
The figure for L50I is -0.361 ± 0.18.
The same measure for L50H: -0.057 ± 0.081.
For the variant Q21P, the abundance fitness was -0.175 ± 0.082.
The same measure for Q21H: 0.184 ± 0.27; for Q21E: -0.258 ± 0.1.
The figure for Q21W is -0.238 ± 0.059; for L3E it is -0.573 ± 0.091.
The same measure for L3G: -0.947 ± 0.14.
Take L3P: the abundance fitness is -0.558 ± 0.076.
The same measure for L3W: -0.283 ± 0.081; for L3M: 0.064 ± 0.089.
Take L3H: the abundance fitness is -0.368 ± 0.11.
The figure for N56L is 0.07 ± 0.077; for N56T it is -0.023 ± 0.25; for N56F it is -0.149 ± 0.24.
For the variant N56V, the abundance fitness came to 0.083 ± 0.2.
For N56W, the abundance fitness is -0.057 ± 0.13.
The figure for N56D is 0.281 ± 0.31; for N56C it is 0.146 ± 0.12.
The figure for N56S is 0.077 ± 0.078; for N56A it is -0.041 ± 0.094; for P62R it is -0.771 ± 0.12.
The same measure for P62E: -0.457 ± 0.093.
On to P62T, for which the abundance fitness was -0.533 ± 0.1.
Consider G25A, for which the abundance fitness was -0.006 ± 0.094.
For the variant G25D, the abundance fitness is -0.501 ± 0.26.
Turning to G25M, the abundance fitness was -0.242 ± 0.21.
The same measure for G25F: -0.494 ± 0.24.
Take L64H: the abundance fitness was -0.769 ± 0.21.
The figure for L64V is -0.295 ± 0.1.
For L64Y, the abundance fitness was -0.416 ± 0.33.
The same measure for L64W: -1.11 ± 0.39; for L28F: -0.215 ± 0.12; for L28P: -0.935 ± 0.14.
Take K16D: the abundance fitness was -0.392 ± 0.16.
The figure for K16S is -0.018 ± 0.052; for K16E it is 0.036 ± 0.12.
K16Y: the abundance fitness was -0.073 ± 0.23.
K16G: the abundance fitness was -0.026 ± 0.086.
Take K16N: the abundance fitness was -0.55 ± 0.49.
The figure for K16P is -1.1 ± 0.28; for S38G it is -0.091 ± 0.049.
The same measure for S38I: -0.146 ± 0.14.
The figure for S38L is -0.045 ± 0.055; for S38N it is 0.133 ± 0.11; for I58S it is -0.017 ± 0.057.
I58L: the abundance fitness turned out to be 0.02 ± 0.056.
I58G: the abundance fitness is -0.287 ± 0.076.
In the case of I58N, the abundance fitness is -0.077 ± 0.28.
The same measure for I58F: -0.287 ± 0.11; for I58P: -0.854 ± 0.17; for I58C: -0.374 ± 0.21.
The same measure for E69A: -0.119 ± 0.083.
For the variant E69S, the abundance fitness was -0.097 ± 0.051.
For the variant E69H, the abundance fitness was -0.481 ± 0.17.
The figure for E69V is -0.178 ± 0.095; for E69Y it is -0.367 ± 0.13; for I63H it is 0.07 ± 0.084.
For the variant I63V, the abundance fitness was -0.006 ± 0.035.
Take I63C: the abundance fitness is -0.231 ± 0.25.
The same measure for I63L: -0.217 ± 0.057; for I63K: -0.495 ± 0.18.
The same measure for I63M: -0.382 ± 0.18; for K61Y: -0.237 ± 0.15; for K61N: -0.393 ± 0.21.
The figure for K61T is -0.02 ± 0.1; for K61F it is -0.38 ± 0.16.
For K61L, the abundance fitness is -0.148 ± 0.07.
With K61I, the abundance fitness was -0.328 ± 0.099.
The figure for K32C is -0.192 ± 0.19; for K32E it is 0.052 ± 0.11; for R1C it is -0.445 ± 0.14.
The same measure for R1V: -0.107 ± 0.088; for R1E: 0.368 ± 0.47; for R1W: -0.143 ± 0.12.
The same measure for S40P: -0.193 ± 0.028; for S40H: -0.228 ± 0.09; for S40M: -0.723 ± 0.42.
For S40W, the abundance fitness was -0.779 ± 0.18.
The figure for S40D is 0.016 ± 0.3; for S40N it is -0.108 ± 0.41; for V19I it is -0.189 ± 0.11.
With V19G, the abundance fitness was -0.927 ± 0.18.
Take V19L: the abundance fitness was determined as 0.004 ± 0.049.
The figure for V19Q is -0.027 ± 0.1.
The same measure for V19S: -0.092 ± 0.052.
The figure for V19A is 0.018 ± 0.063; for Q12Y it is -0.463 ± 0.23; for Q12I it is -0.063 ± 0.13.
With S53N, the abundance fitness was -0.605 ± 0.29.
On to S53K, for which the abundance fitness was -0.738 ± 0.35.
The figure for S53F is -0.882 ± 0.2; for Q65F it is -0.369 ± 0.071; for Q65D it is -0.186 ± 0.28.
For the variant Q65V, the abundance fitness is -0.324 ± 0.062.
The same measure for Q65T: -0.19 ± 0.08; for Q65I: -0.502 ± 0.2; for Q65C: -0.132 ± 0.14.
The same measure for T43K: -0.624 ± 0.17.
The same measure for T43I: 0.207 ± 0.23; for T43F: -0.289 ± 0.21; for T43W: -0.282 ± 0.092.
Regarding I15T, the abundance fitness is 0.026 ± 0.083.
Consider I15S, for which the abundance fitness was -0.262 ± 0.056.
For the variant I15Y, the abundance fitness is -0.444 ± 0.15.
Turning to I15R, the abundance fitness is -0.298 ± 0.055.
Regarding A59S, the abundance fitness was -0.095 ± 0.051.
The same measure for A59E: -0.193 ± 0.17.
In the case of A59T, the abundance fitness was -0.038 ± 0.075.
For the variant L68W, the abundance fitness was -0.663 ± 0.49.
In the case of L68R, the abundance fitness was -0.847 ± 0.43.
The figure for L68M is -0.461 ± 0.26; for L68A it is -0.483 ± 0.12.
For L68V, the abundance fitness is -0.384 ± 0.19.
The figure for K11M is -0.706 ± 0.13.
The same measure for K11W: -0.701 ± 0.2; for K11F: -0.761 ± 0.19.
The same measure for G35P: -0.77 ± 0.13; for G35K: -0.389 ± 0.13.
For the variant G35S, the abundance fitness is -0.228 ± 0.082.
The figure for E8M is -0.137 ± 0.1; for E8W it is -0.208 ± 0.074.
The same measure for E8I: 0 ± 0.1; for E8V: -0.121 ± 0.087.
In the case of E8Q, the abundance fitness is -0.091 ± 0.079.
The same measure for E8T: -0.222 ± 0.079; for L17S: -0.565 ± 0.074.
With L17A, the abundance fitness is -0.394 ± 0.12.
The figure for L17G is -0.884 ± 0.15; for L17D it is -0.681 ± 0.35.
The figure for E72Y is -0.206 ± 0.48.
E72T: the abundance fitness is -0.498 ± 0.28.
The figure for E72D is -0.425 ± 0.28; for E72V it is -0.419 ± 0.2; for E72H it is -0.38 ± 0.18.
The figure for T51L is -0.256 ± 0.064; for T51F it is -0.414 ± 0.11.
T51R: the abundance fitness was -0.111 ± 0.067.
The figure for T51S is 0.018 ± 0.028; for T51G it is -0.181 ± 0.058; for S42I it is -0.272 ± 0.39.
As to S42C, the abundance fitness was -0.325 ± 0.089.
Consider S42H, for which the abundance fitness amounted to 0.085 ± 0.076.
As to S42E, the abundance fitness worked out at 0.107 ± 0.13.
Consider S42T, for which the abundance fitness is -0.054 ± 0.081.
The figure for S42F is -0.494 ± 0.12; for F47V it is -1.06 ± 0.3.
As for F47Y, the abundance fitness was -0.53 ± 0.15.
With F47I, the abundance fitness is -0.67 ± 0.38.
The same measure for F47R: -0.864 ± 0.094.
The figure for F47Q is -0.59 ± 0.18; for F47A it is -0.278 ± 0.17.
The figure for E4F is -0.251 ± 0.18.
As to E4A, the abundance fitness was -0.048 ± 0.057.
Consider E4S, for which the abundance fitness is -0.141 ± 0.061.
As for E4K, the abundance fitness is -0.137 ± 0.089.
The same measure for E48L: -0.93 ± 0.17.
With E48A, the abundance fitness is -0.802 ± 0.13.
In the case of E48R, the abundance fitness is -0.463 ± 0.071.
Turning to E48V, the abundance fitness is -1.17 ± 0.26.
Turning to L60H, the abundance fitness is -0.944 ± 0.47.
Turning to L60C, the abundance fitness was -0.12 ± 0.07.
As to L60P, the abundance fitness is -0.971 ± 0.23.
For L60I, the abundance fitness was 0.201 ± 0.28.
The figure for L60W is -0.729 ± 0.14; for L60E it is -0.866 ± 0.21.
